The target in experiment [1] is T1, NM, the N-terminal and middle region of Saccharomyces cerevisiae Sup35 (soluble, unpolymerized) (Saccharomyces cerevisiae), P05453.
T1 chain: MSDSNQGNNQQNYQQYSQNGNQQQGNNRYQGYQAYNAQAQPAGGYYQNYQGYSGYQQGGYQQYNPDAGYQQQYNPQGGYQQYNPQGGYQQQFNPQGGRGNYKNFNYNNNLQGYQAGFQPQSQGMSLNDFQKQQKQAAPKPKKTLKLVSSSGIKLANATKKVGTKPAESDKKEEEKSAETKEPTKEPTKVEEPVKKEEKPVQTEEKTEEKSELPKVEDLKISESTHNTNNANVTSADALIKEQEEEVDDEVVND
Put plainly: Microcon YM-100 (100 kDa cut off) filtration of fibrillization reactions. To be noted: remark: other sources report otherwise.

Experiment [2] addresses T1, NM, the N-terminal and middle region of …. Briefly: quaternary structure analysis of soluble NM; method not named. The following applies: remark: other sources report otherwise.

B1: NM, the N-terminal and middle region of Saccharomyces cerevisiae Sup35 (soluble, unpolymerized), P05453 1-253 (protein)
chain: MSDSNQGNNQQNYQQYSQNGNQQQGNNRYQGYQAYNAQAQPAGGYYQNYQGYSGYQQGGYQQYNPDAGYQQQYNPQGGYQQYNPQGGYQQQFNPQGGRGNYKNFNYNNNLQGYQAGFQPQSQGMSLNDFQKQQKQAAPKPKKTLKLVSSSGIKLANATKKVGTKPAESDKKEEEKSAETKEPTKEPTKVEEPVKKEEKPVQTEEKTEEKSELPKVEDLKISESTHNTNNANVTSADALIKEQEEEVDDEVVND
B1 showed a percent of total NM in an oligomeric state in experiment [1] of 10%. In experiment [2], this molecule gave a percent monomeric after dilution out of denaturant of 87%.

(Values after patent publication US20090280480A1.)
